According to article PMC3902929 (Nucleic Acids Research, 2013):

Molecular target: the molecule itself
Test: crystal structure

B1: Clostridium thermocellum polynucleotide kinase (CthPnk) mutant D38N (enzyme, UniProt A3DJ38 1-170, looked up)
chain: MKLTIPELSLVVLIGSSGSGKSTFAKKHFKPTEVISSNFCRGLVSDDENDQTVTGAAFDVLHYIVSKRLQLGKLTVVDATNVQESARKPLIEIAKDYHCFPVAVVFNLPEKVCQERNKNRTDRQVEEYVIRKHTQQMKKSIKGLQREGFRYVYILNSPEEVEEVVFERQP
B1: binds.
